Values quoted from earlier work as cited in article PMC10813008.

How the values were obtained:
His54 = His54 (UniProt position 54, KGSCFHRIIPG); assay: NMR; settings: not stated (ref 75 studied forms with and without immunosuppressant ligands; the review does not say which form the limit refers to)
His25 = His25 (UniProt position 26, QTCVVHYTGML); assay: NMR; settings: not stated (ref 75 studied forms with and without immunosuppressant ligands; the review does not say which form the limit refers to)
His61 = His61 (UniProt position 92, RYQMDHGARIF); assay: NMR
His81 = His81 (UniProt position 112, NTIVLHHGPLY); assay: NMR
His119 = His119 (UniProt position 145, PYVPVHFDASV); assay: mass spectrometry
His12 = His12 (UniProt position 38, KFERQHMDSST); assay: mass spectrometry
[1] = complex with 3'-cytidine monophosphate (3'-CMP)

Substance: Cyclophilin (cyclophilin A) (not stated (probably Homo sapiens))
- pKa (His54): < 4.2

Substance: FK506 binding protein (FKBP) (not stated (probably Homo sapiens))
- pKa (His25): < 3.6

Substance: Phosphatidylinositol-specific phospholipase C (PI-PLC) (Bacillus cereus)
- pKa (His61): < 3
- pKa (His81): < 3

Substance: Ribonuclease A (RNase A, pancreatic ribonuclease) (Bos taurus)
- pKa (His119; [1]): 7.0
- pKa (His119; free enzyme): 6.3
- pKa (His12; [1]): 7.1
- pKa (His12; free enzyme): 5.8
